Results as given in patent publication US20250092426, “CAS ENDONUCLEASES AND RELATED METHODS” (Flagship Pioneering Innovations VII, LLC, published 2025).

Molecular target: T1, CasEnd-17 (synthetic construct)
T1 chain: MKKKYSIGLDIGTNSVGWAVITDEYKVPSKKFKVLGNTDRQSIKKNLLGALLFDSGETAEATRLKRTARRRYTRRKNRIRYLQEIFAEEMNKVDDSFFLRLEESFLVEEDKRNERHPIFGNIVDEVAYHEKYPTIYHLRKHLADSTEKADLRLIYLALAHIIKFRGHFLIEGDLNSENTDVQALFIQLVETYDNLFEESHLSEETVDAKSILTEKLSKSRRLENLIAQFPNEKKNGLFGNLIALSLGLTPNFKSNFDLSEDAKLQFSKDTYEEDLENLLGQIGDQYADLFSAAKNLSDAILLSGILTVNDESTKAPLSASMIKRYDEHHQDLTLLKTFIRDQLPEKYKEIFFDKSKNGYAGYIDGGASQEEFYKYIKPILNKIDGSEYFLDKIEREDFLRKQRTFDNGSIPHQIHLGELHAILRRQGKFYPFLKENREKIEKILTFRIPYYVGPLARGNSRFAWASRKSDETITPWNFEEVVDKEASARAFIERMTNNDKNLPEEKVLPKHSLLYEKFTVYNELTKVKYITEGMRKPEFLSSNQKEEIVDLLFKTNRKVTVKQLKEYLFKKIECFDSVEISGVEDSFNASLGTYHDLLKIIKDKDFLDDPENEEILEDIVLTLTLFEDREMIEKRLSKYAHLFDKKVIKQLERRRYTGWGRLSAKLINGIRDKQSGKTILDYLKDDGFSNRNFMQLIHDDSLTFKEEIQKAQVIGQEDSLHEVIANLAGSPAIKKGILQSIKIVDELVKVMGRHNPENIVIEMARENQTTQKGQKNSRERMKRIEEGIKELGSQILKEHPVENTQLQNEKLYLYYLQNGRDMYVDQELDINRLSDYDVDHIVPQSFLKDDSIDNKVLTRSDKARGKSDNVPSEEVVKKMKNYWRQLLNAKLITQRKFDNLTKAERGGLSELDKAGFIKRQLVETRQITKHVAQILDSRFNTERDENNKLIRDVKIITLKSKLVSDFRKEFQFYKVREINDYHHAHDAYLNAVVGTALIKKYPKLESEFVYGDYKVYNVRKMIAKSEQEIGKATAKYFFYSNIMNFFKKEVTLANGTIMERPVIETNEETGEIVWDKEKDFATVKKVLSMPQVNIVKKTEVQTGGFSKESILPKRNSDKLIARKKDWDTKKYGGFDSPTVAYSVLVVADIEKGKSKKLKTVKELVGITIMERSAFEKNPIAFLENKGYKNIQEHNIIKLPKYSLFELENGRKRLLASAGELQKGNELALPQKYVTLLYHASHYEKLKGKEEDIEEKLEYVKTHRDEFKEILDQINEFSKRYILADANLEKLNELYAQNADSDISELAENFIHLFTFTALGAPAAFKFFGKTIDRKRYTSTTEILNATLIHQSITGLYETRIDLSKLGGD
Assay: cell_activity; +++; HEK293T; PAM not stated
Procedure, shortened: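 BFP-to-GFP conversion via reverse transcriptase fusion with each Cas endonuclease plus template RNA: 200 ng of each plasmid nucleofected into 250,000 BFP-expressing HEK293T cells (program DS-150). Percent GFP+ cells by flow cytometry at day 4 measured editing.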

B1: BFP-to-GFP template RNA ; BFP reporter protospacer (ssRNA ; dsDNA)
RNA: GCCGAAGCACUGCACGCCGUGUUUUAGAGCUAGAAAUAGCAAGUUAAAAUAAGGCUAGUCCGUUAUCAACUUGAAAAAGUGGCACCGAGUCGGUGCACCCUGACGUACGGCGUGCAGUGCUU
DNA 1: GCCGAAGCACTGCACGCCGT
DNA 2: ACGGCGTGCAGTGCTTCGGC
  activity: ≥ 100 % of reference
